{
  "source": "paper PMC4703963",
  "about": "“Oxidative Dimerization of PHD2 is Responsible for its Inactivation and Contributes to Metabolic Reprogramming via HIF-1α Activation” (Scientific Reports, 2016)",
  "proteins": {"B1": {"name": "Flag-tagged PHD3 (natural protein, human, UniProt Q9H6Z9 1-239, looked up)", "chain": "MPLGHIMRLDLEKIALEYIVPCLHEVGFCYLDNFLGEVVGDCVLERVKQLHCTGALRDGQLAGPRAGVSKRHLRGDQITWIGGNEEGCEAISFLLSLIDRLVLYCGSRLGKYYVKERSKAMVACYPGNGTGYVRHVDNPNGDGRCITCIYYLNKNWDAKLHGGILRIFPEGKSFIADVEPIFDRLLFFWSDRRNPHEVQPSYATRYAMTVWYFDAEERAEAKKKFRNLTRKTESALTED", "notes": "PHD3, human; Flag-tagged lentiviral vector from William Kaelin; also called Flag-PHD3; source: U2OS stably expressing (lentiviral vector), in lysate"}, "B2": {"name": "PHD3, endogenous (natural protein, human (endogenous in U2OS), UniProt Q9H6Z9 1-239, looked up)", "chain": "B1 chain", "notes": "PHD3, endogenous in U2OS cells; source: endogenous, U2OS lysate"}},
  "target": "the molecule itself",
  "assay": "non-reducing SDS-PAGE with immunoblot; total cell lysates (1% IGEPAL, 150 mM NaCl, 50 mM Tris-HCl pH 7.9, no reducing agent) in sample buffer without β-ME; cells treated with H2O2 (50-200 uM), T-hydro (1-3 uM), diamide (0.1-1 mM), 10% FBS or expressing H-ras V12",
  "data": [
    {"protein": "B1", "values": [
      {"measurement": "stoichiometry N", "result": 2}
    ]},
    {"protein": "B2", "values": [
      {"measurement": "stoichiometry N", "result": 2}
    ]}
  ]
}
